In publication PMC5268420 (PLoS ONE, 2017):

Legend:
purified αIIbβ3 integrin = target: T1, purified αIIbβ3 integrin (Homo sapiens (assumed), UniProt P08514;P05106); assay: SPR; Biacore 3000; αIIbβ3 amine-coupled on CM5 (about 8000 RU); scFv injected at 94, 188 and 390 nM; HBS-EP with 2 mM Ca2+; 20 μL/min; settings: both partners purified
T1 construct: integrin αIIb (CD41) subunit of purified αIIbβ3; integrin β3 subunit of purified αIIbβ3; probably from human platelets (surmise); also called integrin αIIbβ3; source: bought: Kordia Life Sciences

[1] = target: T2, αIIbβ3 integrin on lyophilized platelets (Homo sapiens (assumed), UniProt P08514;P05106); assay: BLI; Octet Red96; TEG4-2c scFv loaded on HIS2 (anti-penta-His) sensor at 21 μg/mL; platelets 5x10^5 to 5x10^8/mL (αIIbβ3 42 pM to 42 nM) as analyte; platelet buffer; settings: one partner purified
T2 construct: integrin αIIb (CD41) on lyophilized platelets; integrin β3 on lyophilized platelets; Platelet concentrations were converted into αIIbβ3 molarities with 50 000 αIIbβ3 per platelet; also called whole platelets; blood platelets; source: bought: lyophilized platelets, Helena Biosciences Europe, resuspended

[2] = target: T3, αIIbβ3 integrin on human platelets (Homo sapiens, UniProt P08514;P05106); assay: flow cytometry on cells; washed human platelets activated with 0.5 U/ml thrombin, PFA-fixed; 25 μg/mL TEG4-2c scFv overnight at 4°C; detected with Alexa Fluor 488 anti-6His; settings: one partner purified
T3 construct: integrin αIIb (CD41), human, on platelets; integrin β3, human, on platelets; the state is told by the assay; also called A-PL; NA-PL; source: endogenous, human platelets (washed platelets and platelet-rich plasma from healthy donors; platelets in human coronary artery sections)

[3] = target: T4, αIIbβ3 integrin on murine platelets in atherosclerotic aorta sections (Mus musculus, ApoE-/-, UniProt Q9QUM0;O54890); assay: immunostaining of cells or tissue; paraffin sections of atherosclerotic arteries of mouse, rabbit and human; scFv 20-40 μg/ml overnight at 4°C; detected with HRP anti-6His and DAB; settings: one partner purified
T4 construct: integrin αIIb (CD41), mouse, on platelets in tissue; integrin β3, mouse, on platelets in tissue; source: endogenous, paraffin sections of aorta of ApoE-/- mice

[4] = target: T5, αIIbβ3 integrin of rabbit platelets in aorta (Oryctolagus cuniculus, New Zealand, UniProt Q9TUN4;Q9TUN3); assay: as above; settings: one partner purified
T5 construct: integrin αIIb (CD41), rabbit, endogenous in aorta tissue; integrin β3, rabbit, endogenous in aorta tissue; In the ELISA the integrin stood within solubilised aorta proteins (T-PER or HSB lysis buffer), not on cells; also called atheromatous proteins; healthy aorta proteins; source: endogenous, New Zealand rabbit aorta (paraffin sections; soluble protein extracts of atheromatous and healthy aorta)

T3 sequence (P08514 32-1039, chain 1 of 2): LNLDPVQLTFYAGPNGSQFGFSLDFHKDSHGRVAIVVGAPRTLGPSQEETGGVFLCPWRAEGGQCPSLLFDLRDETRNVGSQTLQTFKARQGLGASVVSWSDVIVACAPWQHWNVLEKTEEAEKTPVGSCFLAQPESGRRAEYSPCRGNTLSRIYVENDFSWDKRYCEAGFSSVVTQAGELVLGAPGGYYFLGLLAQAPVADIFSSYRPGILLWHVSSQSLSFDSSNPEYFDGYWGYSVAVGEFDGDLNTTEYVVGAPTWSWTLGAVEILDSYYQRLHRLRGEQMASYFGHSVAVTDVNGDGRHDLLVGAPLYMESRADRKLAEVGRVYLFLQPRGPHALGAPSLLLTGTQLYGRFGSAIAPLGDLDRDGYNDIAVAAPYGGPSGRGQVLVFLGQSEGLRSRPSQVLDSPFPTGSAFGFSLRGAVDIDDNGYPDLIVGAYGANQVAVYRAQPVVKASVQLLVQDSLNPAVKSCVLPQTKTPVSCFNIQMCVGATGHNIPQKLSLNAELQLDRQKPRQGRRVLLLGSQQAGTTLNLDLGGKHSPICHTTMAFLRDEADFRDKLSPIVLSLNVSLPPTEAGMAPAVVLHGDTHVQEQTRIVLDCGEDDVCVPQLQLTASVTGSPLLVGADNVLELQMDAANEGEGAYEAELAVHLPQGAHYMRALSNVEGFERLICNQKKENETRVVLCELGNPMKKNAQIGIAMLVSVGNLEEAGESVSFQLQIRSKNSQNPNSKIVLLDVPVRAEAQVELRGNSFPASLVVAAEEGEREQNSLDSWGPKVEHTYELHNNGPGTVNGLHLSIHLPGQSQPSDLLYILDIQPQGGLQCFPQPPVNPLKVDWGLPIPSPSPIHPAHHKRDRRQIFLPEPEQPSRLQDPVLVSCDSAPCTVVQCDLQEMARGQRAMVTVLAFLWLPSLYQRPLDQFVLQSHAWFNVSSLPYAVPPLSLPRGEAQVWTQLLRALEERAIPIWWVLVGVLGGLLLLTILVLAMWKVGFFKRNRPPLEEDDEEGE
T3 sequence (P05106 27-788, chain 2 of 2): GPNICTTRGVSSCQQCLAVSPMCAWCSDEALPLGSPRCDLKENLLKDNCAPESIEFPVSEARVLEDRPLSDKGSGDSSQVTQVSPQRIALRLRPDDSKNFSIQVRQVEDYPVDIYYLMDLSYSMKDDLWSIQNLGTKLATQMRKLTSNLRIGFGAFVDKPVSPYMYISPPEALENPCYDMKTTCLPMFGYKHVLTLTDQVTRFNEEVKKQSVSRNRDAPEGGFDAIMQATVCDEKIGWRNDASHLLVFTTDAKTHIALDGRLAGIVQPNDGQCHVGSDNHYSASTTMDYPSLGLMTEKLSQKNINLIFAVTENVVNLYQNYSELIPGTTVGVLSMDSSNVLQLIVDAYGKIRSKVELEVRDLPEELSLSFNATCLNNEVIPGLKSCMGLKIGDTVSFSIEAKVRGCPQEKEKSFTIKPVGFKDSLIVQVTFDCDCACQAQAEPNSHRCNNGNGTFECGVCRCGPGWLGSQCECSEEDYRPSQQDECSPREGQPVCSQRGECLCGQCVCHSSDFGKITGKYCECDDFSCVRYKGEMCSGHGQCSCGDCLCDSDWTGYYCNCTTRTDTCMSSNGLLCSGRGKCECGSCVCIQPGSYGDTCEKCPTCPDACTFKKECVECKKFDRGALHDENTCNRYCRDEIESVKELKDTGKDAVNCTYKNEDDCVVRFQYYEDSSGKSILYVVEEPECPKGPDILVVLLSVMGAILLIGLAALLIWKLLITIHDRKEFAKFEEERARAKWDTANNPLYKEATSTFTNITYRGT
T1 sequence (P08514 32-1039, chain 1 of 2): as the sequence (P08514 32-1039, chain 1 of 2) above
T1 sequence (P05106 27-718, chain 2 of 2): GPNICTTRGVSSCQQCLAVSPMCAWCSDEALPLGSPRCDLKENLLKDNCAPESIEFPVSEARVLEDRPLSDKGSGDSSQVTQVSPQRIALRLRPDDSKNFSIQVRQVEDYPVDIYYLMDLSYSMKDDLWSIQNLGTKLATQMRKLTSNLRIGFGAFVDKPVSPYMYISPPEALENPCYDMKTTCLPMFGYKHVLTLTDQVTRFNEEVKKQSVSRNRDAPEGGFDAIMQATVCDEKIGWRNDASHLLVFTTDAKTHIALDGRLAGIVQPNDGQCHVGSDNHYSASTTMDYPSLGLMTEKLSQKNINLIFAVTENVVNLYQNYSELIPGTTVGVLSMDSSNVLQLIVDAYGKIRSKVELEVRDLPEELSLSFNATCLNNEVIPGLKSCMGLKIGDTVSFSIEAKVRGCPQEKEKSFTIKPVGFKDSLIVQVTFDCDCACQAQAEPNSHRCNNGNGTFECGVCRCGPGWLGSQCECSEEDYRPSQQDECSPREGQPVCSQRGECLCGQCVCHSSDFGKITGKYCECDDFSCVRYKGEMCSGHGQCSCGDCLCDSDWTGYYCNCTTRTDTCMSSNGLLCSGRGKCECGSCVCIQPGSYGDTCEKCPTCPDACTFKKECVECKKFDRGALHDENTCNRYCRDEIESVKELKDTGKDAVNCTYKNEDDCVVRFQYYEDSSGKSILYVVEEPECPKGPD
T2 sequence (P08514 32-1039, chain 1 of 2): as the sequence (P08514 32-1039, chain 1 of 2) above
T2 sequence (P05106 27-788, chain 2 of 2): as the sequence (P05106 27-788, chain 2 of 2) above
T4 sequence (Q9QUM0 32-1033, chain 1 of 2): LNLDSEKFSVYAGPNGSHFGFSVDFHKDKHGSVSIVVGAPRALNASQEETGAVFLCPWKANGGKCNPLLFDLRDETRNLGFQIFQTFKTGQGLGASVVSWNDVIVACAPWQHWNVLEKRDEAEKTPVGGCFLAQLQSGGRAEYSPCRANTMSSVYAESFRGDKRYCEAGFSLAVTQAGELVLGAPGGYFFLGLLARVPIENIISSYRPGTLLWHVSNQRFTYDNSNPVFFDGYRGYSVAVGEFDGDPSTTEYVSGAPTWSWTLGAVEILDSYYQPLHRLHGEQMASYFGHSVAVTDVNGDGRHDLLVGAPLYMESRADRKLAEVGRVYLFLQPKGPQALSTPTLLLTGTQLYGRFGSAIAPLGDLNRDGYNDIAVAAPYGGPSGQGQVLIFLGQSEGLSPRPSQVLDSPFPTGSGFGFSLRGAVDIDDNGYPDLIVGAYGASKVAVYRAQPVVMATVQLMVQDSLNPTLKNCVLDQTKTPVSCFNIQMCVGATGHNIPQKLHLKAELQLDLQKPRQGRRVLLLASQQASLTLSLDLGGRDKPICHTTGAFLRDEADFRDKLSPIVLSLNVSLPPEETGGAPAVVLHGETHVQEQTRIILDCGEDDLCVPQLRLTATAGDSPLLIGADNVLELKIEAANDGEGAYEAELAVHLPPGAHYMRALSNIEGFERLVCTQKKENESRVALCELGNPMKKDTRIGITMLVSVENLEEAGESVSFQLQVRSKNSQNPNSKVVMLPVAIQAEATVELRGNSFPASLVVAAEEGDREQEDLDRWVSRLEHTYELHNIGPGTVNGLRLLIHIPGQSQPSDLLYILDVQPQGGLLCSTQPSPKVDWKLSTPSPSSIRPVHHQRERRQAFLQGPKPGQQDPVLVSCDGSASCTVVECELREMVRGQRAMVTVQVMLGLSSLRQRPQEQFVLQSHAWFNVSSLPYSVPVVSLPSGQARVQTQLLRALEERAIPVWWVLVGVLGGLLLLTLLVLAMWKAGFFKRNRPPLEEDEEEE
T4 sequence (O54890 26-787, chain 2 of 2): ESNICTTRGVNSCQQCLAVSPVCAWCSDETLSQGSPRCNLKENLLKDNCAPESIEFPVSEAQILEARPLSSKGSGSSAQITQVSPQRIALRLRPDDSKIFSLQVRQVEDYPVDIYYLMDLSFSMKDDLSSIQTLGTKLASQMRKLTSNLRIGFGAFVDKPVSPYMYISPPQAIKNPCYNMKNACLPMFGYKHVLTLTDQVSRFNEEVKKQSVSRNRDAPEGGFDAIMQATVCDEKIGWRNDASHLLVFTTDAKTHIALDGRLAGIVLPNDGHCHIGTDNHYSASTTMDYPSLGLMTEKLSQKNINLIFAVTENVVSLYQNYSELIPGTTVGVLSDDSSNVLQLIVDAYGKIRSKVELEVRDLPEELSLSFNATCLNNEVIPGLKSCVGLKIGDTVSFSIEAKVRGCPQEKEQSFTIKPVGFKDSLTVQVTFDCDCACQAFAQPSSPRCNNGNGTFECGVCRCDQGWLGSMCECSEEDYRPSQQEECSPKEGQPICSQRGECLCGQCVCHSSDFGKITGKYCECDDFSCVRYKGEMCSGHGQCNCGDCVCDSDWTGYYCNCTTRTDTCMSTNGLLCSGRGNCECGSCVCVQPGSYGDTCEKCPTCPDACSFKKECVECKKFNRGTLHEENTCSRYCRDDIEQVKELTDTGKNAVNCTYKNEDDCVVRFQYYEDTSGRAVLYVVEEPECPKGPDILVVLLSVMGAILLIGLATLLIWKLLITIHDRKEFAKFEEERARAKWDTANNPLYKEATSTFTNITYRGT

binding result (purified αIIbβ3 integrin): binds
binding result [1]: binds
binding result [2]: binds
binding result [3]: binds
binding result [4]: binds
B1: TEG4-2c scFv (recombinant human anti-αIIbβ3 single-chain variable fragment with 6His-Gly-Cys-Cys C-terminus) (scFv, V domains shown)
VH: QVQLVESGGGVVQPGRSLRLSCAASGFTFSSYAMHWVRQAPGKGLEWVAVISYDGSNKYYADSVKGRFTISRDNSKNTLYLQMNSLRAEDTAVYYCARKSYFDYWGQGTLVTVSS
VL: VSELTQPASVSGSPGQSITISCTGTSSDVGGYNYVSWYQQHPGKAPKLMIYEVSNRPSGVSNRFSGSKSGNTASLTISGLQAEDEADYYCSSYTSSSTLVVFGGGTKLTVL
notes: Gly-Cys-Cys added after the 6His tag at the very C-terminus (printed in three-letter code as 'Gly-Cyc-Cys'), for site-specific grafting; Order at the C-terminus: scFv, c-myc tag, 6His, Gly-Cys-Cys; Purified fractions are said to hold monomers and dimers; also called scFv TEG4-2c; anti-αIIbβ3 TEG4-2c scFv; source: Pichia pastoris X33, secreted into the supernatant, purified (IMAC HisTrap excel, …)
